Experimental data taken from the domain aggregation screens of Martell et al. (2025).

Assay: soluble fraction after stress (log2 fold change); higher = more stays soluble; pooled small domains, quantitative proteomics
Conditions: stress: pH 4
Procedure, shortened: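 After pH 4 stress, pooled custom libraries of small protein domains were quantified with high-throughput quantitative proteomics. Aggregation propensity is taken from the fold change in each domain's soluble amount following the acid stress. The scale is log2, where higher values mean more stayed soluble.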

| Sequence | soluble fraction (log2) |
| --- | --- |
| HMSMPEVLSDRELEIFRMIGTGMSTGDIAKKLNISVNTIESHRKKIKDKLGIQKGSELVKAAVQWVSTQQ | -0.219 |
| HMKMSLKENLLELLQKSSGEFLSGERAAETLGVSRTAVWKAVTSLKNEGYNIESVTNRGYRFS | 0.395 |
| HMVGADTISDLISQRGRMIGDKPITNAVIKSGSEFSTINALSKAIASGDARTNDVEGMKPVFR | -0.0241 |
| HMGKNIQAIRYKNNMTQDQVVAKLNLMGISITKSTYAKLETNRMNIKASELVALAKLFHTDINAFFSG | -0.0779 |
| HMGGVSTDKPLNWDADGTSKLTQEQIDYLRSTYDLSDMSKQDYYDLMADLTNMNAISIKDVISQYVK | -0.462 |
| HMEQINVTIQTEKGRIDKVLSEHLPNHSRSQIQQWLKEKHVTVNGETVRANYKVTAGDEIVVTIPEPEV | -0.18 |
| HMSSSYTEMQLDKLKKLLEKETLLSSEKSELKSLIHDFDKIPEVVSPLIVGEYLRLKNKYIAVINSLE | -0.322 |
| HMTTEPYILTRMPDGSIKAEPNLNYKGPEQKPGSNIQVKGADGRIYLVPIDGQGKPGKPQLVD | 0.127 |
| HMNEYIVSAEQEGMRLDVFLTEQMEGSRSYIQSLIKGGHVTVGDKVGKANLRLTPDTVIHVEIPEPE | -0.166 |
| HMVQDDDPNSVAKFIDQVIESNPEQVEQYRSGKEKVFNFFLGQTMRLSKGKANPDLVSELLKEKLS | -0.00692 |
| HMIAASPVGGIDRVLELLDARGQRVAWIEASGTEGGQRLRLGWIDAQGAERHGAWVPWSADDLLLYA | -0.547 |
| HMKALHEEIAEKIQEQILRSNLAPGDKLDTELELAARYGVSRSTIRQALIQLESAGLIDRLHGRGTFVAD | 0.029 |
| HMVLTYYSVLGVKTDATTEEIKSTYKQLAIRNHPDRGGSEEVMKMINLAAEILSDPKSRKEYDLSLDA | -1.48 |
| HMARAGKLAQDMAVWTKETMLNTERNFISLRHFKRELLRRTLAPGESEQTVRAMEEAGYIQVKDGLVFPIK | -0.511 |
| HMKNHIEERRKARGMTQQQLASELGVSRQTIISLENGKYNPSILLAHSIARLFGERIEDIFILR | -0.354 |
| HMEEVYVPDIRDKSISDAKKILSQMGLKYRIEGEGYDDSTVIKDQTPKPGALLAKDSVVIAYINE | -0.0728 |
| HMSLEDMILSLSSRIRRGESLHFRELLVAIETKSGMVTIFMAVLELLKQQVMEMRYEDDDIIFT | -0.567 |
| HMTPTITNALEEAEKAVSEVQEGKKEIELTPQGAYIRHLQHAIADRYGISSTSTGRDPKRKVIIY | -0.437 |
| HMPERMLEPLLNGNEIMKVTQLQPGPKVGLIRDALLQAQISGDVTDTESAKAFVQDYAKRNI | 0.386 |
| HMFQNYTDAVVVASKTFFYNMPDESTRKSAYLIQGDRIMVEKSQRNFVYVTFTNEASGRTTTGWLKSDDLE | -0.00722 |
| HMDGRIRFRHAALHDPDVAARLHDYLTTSLPGVRSARVNSQTGSLLLEYDPEVLDRSTLLDLAARAESLL | -1.06 |
| HMNAYEVLIPNIYIGQRVDQTLASLFPQFSRSRLQNWLARGNLLIDGEIIKPKTKVLGGEQIIILDT | -1.05 |
| HMVMTTVPEVLGMDIRTAASMLTGKNLKYDYDLVESDKPKDEVIEQDQAKGTEVPEGTVVKLKVSKGPA | 0.247 |
| HMVVGYRYVTNVANAVNFRQKPSASSTIITTIPYGTRIGYVEDANSEYARVKYDNMYGYVAKFYLSNYSPP | 0.276 |
| HMNSVAASLREISIKVSGTEDADKVSRLQELSQMPKLDASGIAEANTLLEQLRAKYGDLGLSVDTARGRIV | 0.0674 |

| Sequence | soluble fraction (log2) |
| --- | --- |
| HMQMRKENKILVTDIGEIDEVKVIFDDDNKPYLYSYNGEDEFYRPDETYKFFDNKEQAEEYVREN | -0.891 |
| HMTDEEFSRIVKYTAVRYGINLYHKKVMVEGRLSNYLAANGFKSYTEYMDRVEADYTGQEAQNLINILTT | -1.3 |
| HMPRYQQIARQLKTAIEHGELKPGARLPSSRTWSQELGISRSTVESAYTELVAQGWLERRGQAGTFVSAQL | 0.0517 |
| HMKEVKRDQVIEAARKLFHQFGFKKVSMDEIAKEAGVTKKTIYMYFESKEELLKYFIQEEISN | -0.44 |
| HMDRNIVYSDFIRSVNQGQVSEVLVQGDNIRGRYLNGKVFQTFAPKDPSLISTLRNKGVRISAEPA | -0.022 |
| HMDSAFVSDIRDAFDEAGVDSYRFFGTHSFKRGGVQLYRLLGVSDQEIKERGHWQTFSAYFAYVQA | -0.303 |
| HMSDLPLLEHARQNLSDDEFRILELTTIYGYRRVEVAKMLGEPISTINWKYNKLIKKVKTFYGEVYN | -0.567 |
| HMTEEDVVIFSGLSDRDLKMVQTELANSGIKYTLPTSGTVSVPNSEIARAQMVLAMAGIPRS | -0.0859 |
| HMDQDIILHKVQPGDTLSKILLHYHSHQDRNKLQGLIAESMTANPFIKNPDLIYPGQLIQVPVPA | 0.124 |
| HMIKYTIEELGELTGFTRRTIRYYVQEGLIDPPAGRGRGGFYYDSHVQQLLRIKSFQEKGIGITAMVSLM | -1.71 |
| HMEAYMVPNVKNKTLNEAQQALSNQKLKGLVIDSSYVKGVPDGMVLDQNPAGGARVKEGRTIYLTVTTS | 0.259 |
| HMNISLGALVTITDQKGRSHTVTLESGKQFFTNHGSINHDEIIKAGEGGVVASSSGMLYTIFTP | -0.551 |
| HMEATVGSRVRLARIGLTLTQKQLAQAVGVSANHLAMVERGSKHASEDLLQRIATATHTTYEWLMGTSEHQ | 0.174 |
| HMNIVINVDTPTFEQMKATYQAPGTLPAGASFHAKLKGVTVTGYTKSHKVMFQGALANQEAARWQ | ≥ 0.43 |
| HMEIALNDKQILLFSNKLVHEPSFASKYSKVGESYDDFAIRISENLTIPDKVQEYLPYLEKVGFNI | -0.191 |
| HMKRVVFFNGISWYHRTKELLDDMTTKYGKKGGFATPEEAEKSYWEYEERYKDRQRELQVAYLKN | -0.913 |
| HMNVEQQNQARENIKRLMEEQGLSQPKLSEKAGIAFGTLSRILRGKQDLTIQTAEKIADALGLSVYDLAE | 0.247 |
| HMHMSKKLADSISALRKKNGLSQEQLAEKIGISRQTVSNWERGIATPDVETLNLISKLFDEDLSVMING | 0.043 |
| HMEGVSPQTVQEHIRRFIAAEDPASPLSDEALREALGNLGINASRRTVAKYRGEMGIPSSAQRKR | 0.00892 |
| HMKTKMTPELTTVIEAQIQKEWSPEQISGWLKKTHPVSVSHQRIYQHIQADRQQGGTLHQHLRQAK | -0.2 |
| HMNADAPWSPFSPGFTGPMNRPVIGLVTKADLANPQRISLVESWLVQAGAQKVFVTSALENTGVDEMFIFL | -0.288 |
| HMGKHYLLKDDNGTITIYKILEDGTQEVYEKTEISTTYLPQTDNIGIKQGIRVNGDEALNELIENF | -0.821 |
| HMTRKQTIYEFLRRMKSQHGLDAVYSTEEIANAVGVSRANVSSDLNRLFEEQLVEKLPGWPVKYRA | 0.128 |
| HMKNANGYGSITKLKGNRRKPYMVRITVGRDENGFPIRKVLGYYSSKANAVAALSDYNREPYDI | -0.281 |
| HMKRITKKQLSQQLEQFFSSQPGKKLTLKDIFRALHLDTHPLKMLAMDIMEEMAWDDFITKKGENAYQLNT | -0.725 |

| Sequence | soluble fraction (log2) |
| --- | --- |
| HMGEDSEPVQVPDVTGQPLWEARRTLSSMGLKVLDDGGSGSVTAQMPSAGATLRNGGQMMLYTYDEALPE | 0.033 |
| HMTITDDETHKVLEEGASRMSEGLTFRDLVDLDRLHLTARGVIQKVLNENRIDADVDTIANMAQKLVARVS | -0.567 |
| HMNILDPTVMKNILDKNHEEFIAIYESAPLGQKTIINSMVFDKRLNGENVDANILMYLQNKTNIDYINIEP | -1.47 |
| HMYYHQIIGLDVVDENGNTLGKIKEILSPGANDVWVVKRKQKNDLLLPVIDDVIKDVDLAAGKVHVELLEG | -1.38 |
| HMISADSSKVDTLVQVYSNMKPIQAAQVFEKMDEDLVIEILSRMKKKNAADILNLIKTEKAQVFAEKYA | -0.0774 |
| HMPTTTFENLPDAKKKTIIAALLKEFSQSPLSKAQVAPIVKESQIARGAFYKYFVDLTDAYTYLYRQ | -0.217 |
| HMRNNKLRRANKLKTEFENLPHIGKKRAHVLLKAFGSTENLKMTTAQALSEAAKISLKQAEEVLEAVRG | -0.0912 |
| HMKPVTNHTVKFYVDDVLWKTVTVKHGGNVRLADLPMSDGKTFVGWSESVVNVTKDLTVFALFS | -0.478 |
| HMIYQNVINLLKNRLNSSIYNIGDLLPSEKELAEHYDVSRNTLRKALKTLEEEGMIERRHGSGTYLRNK | 0.0262 |
| HMSSPDMSLLYSELDVKDSGQIVTILEQRNIPYEVRNNGSQIYIPSNNVQRIRLSLAQEGLPSG | 0.152 |
| HMDETYRRQLEDLAREHGAEYLHGILREVDPASAEAIHANNIKRVIRALEFYHLSGKKISEHNETERQ | -0.00358 |
| HMQAPHLALSPREFQVLQGLLAGDALDIIAERLHLSAKTVSNHQTLIRQKLGVGNAVELLRYAQLHRL | -0.661 |
| HMALPGESVYVSILQSGSNRDQGVGYLDDGTMVVVDGAIKDIGKSIEVVINKSHQTVAGKMLFAKKVA | -0.144 |
| HMGITRQQALQQINQSASPKKILNASLGKRGSEFVWDIGYLSKSGKLNYVTYSFRSGEQLNAIKN | -0.504 |
| HMQETKDEGAQVLLNKINALVAAVQGQIITPEEAAIKLATDGDLDLDVDARVAAIEEFNKKLSEAQNN | -0.682 |
| HMHMIDDYLARIGQLIRDARQHRGWTQVQLAEALGTSQSAVNRIERGNQNISLEMIARIGEALGSEIVSLG | -0.64 |
| HMETFGLSQRELQILSQLHKGQPLKEFAASLFITESTLKTHLSAIYRKMSVKNRVQAIEKAKQSGL | -0.273 |
| HMDEDTWKLYKRAYKKYYARYMKGNMSEAAFKAWGEQAAADRDAAIEQLRATTDAALSASIIQQLKEKLNR | 0.22 |
| HMTTIKLTQEDVEKIKSLPKRTFLIGNLQQTGLYDEKTRRFYYLDANGEWNGRLAIINTPPPPPPPP | -0.0951 |
| HMEREQNIAQGREVVQRELKRLGLTDVFTVEDIGRALKFDDIDEFLSKVGFGDIQTAKITGAIALMQQALR | -0.84 |
| HMDGLPYPEAAEEPIAQVARNLGMDATRVSIALQEAKLIFRNLDETLAEIAANNGTTPQVVYDAIRHLEPP | -0.372 |
| HMVSQELIMLGNRIREYRKERGFSQEILAEKSGVSTNTISRIEGGQMAMSVGILQRIVKALGVDANVMLG | 0.12 |
| HMNILNYIIENENQEVRVDKFLSDTIEDMSRSSVASIIEDGGLLVNDKLQNKKYKLKIGDKVQFTVPDPV | -0.121 |
| HMPLITLSAEIQSEQIGQRLDQTLAELFPEYSRSRLKTWIEADLVKLNNQIVNIPREKVLGGEHVEITVDI | -0.792 |
| HMAIELIDLIKNPETAPFSKLKYLKWMPEAEVTGFFNNLFQLNVTARETGDWSTVDKFLEDEGDRIAAQVA | -0.215 |
